The record followed here is patent US9212226B2, “Amino acid sequences directed against CXCR4 and other GPCRs and compounds comprising the same” (Ablynx N.V., priority 2008, dated 2015).

Marks after values point to notes of the source that are not given here.

Experiment [1] has as its target T1, CXCR4 (Homo sapiens, UniProt P61073). The experiment can be described thus: [125I]-CXCL12 competition binding on membranes from HEK293T cells transiently expressing CXCR4. The settings on record: for Displacem. (%) of [125I]-CXCL12 at 0.5 μM: at highest test concentration of 0.5 μM (footnote a: no significant displacement); for displacement of specifically bound [125I]-CXCL12: purified ligands, highest Nanobody test concentration 0.5 μM; for Rel. potency, relative to monovalent 238D2: [125I]-CXCL12 displacement, potency relative to those of monovalent 238D2; for Displacem. (%) of [125I]-CXCL12 (maximal displacement), bivalent Nanobodies / pKi, [125I]-CXCL12, bivalent Nanobodies / Binding (binding efficiency, competition binding with [125I]-CXCL12): membranes from HEK293T cells transiently expressing CXCR4; for Displacem. (%) of [125I]-CXCL12 (maximal displacement), bivalent Nanobodies / pKi, [125I]-CXCL12, bivalent Nanobodies: mean ± S.E.M.; for Binding (binding efficiency, competition binding with [125I]-CXCL12): screening of Nanobody clone pools. The procedure:
(§1) HEK293T cells were maintained at 37° C. in a humidified 5% CO2, 95% air atmosphere in Dulbecco's modified Eagle's medium (DMEM) containing 2 mM L-glutamine, 50 IU/ml penicillin, 50 μg/ml streptomycin, and 10% (v/v) fetal calf serum. Jurkat cells were cultured in a humidified 5% CO2, 95% air atmosphere in a 1:1 mixture of Dulbecco's modified Eagle's medium (DMEM) and Ham's F12 medium containing 2 mM L-glutamine, 50 IU/ml penicillin, 50 μg/ml streptomycin, and 10% (v/v) fetal calf serum. […] [^125 I]-Labelling— Radiolabeling of Nanobodies with ^125I was performed using the Iodo-gen method (Pierce, Rockford, Ill.) according to the manufacturer's protocol. ^125I-labeled Nanobodies was separated from free iodine (>99%) using a Sephadex G-25 gel filtration column (Amersham Biosciences, Piscataway, N.J.). […] Competition Binding Assays— Membranes from HEK293T cells transiently expressing CXCR3 or CXCR4 were prepared 48 h after transfection as follows. Cells were washed and scraped from the cell culture dishes with ice-cold PBS containing 1 mm EDTA. The scraped cells were pelleted at 1500×g for 10 min at 4° C. The pellet was washed and then resuspended in ice-cold membrane buffer (15 mM Tris, pH 7.5, 1 mM EGTA, 0.3 mM EDTA, and 2 mM MgCl2). The cell suspension was homogenized by 10 strokes at 1200 rpm using a Teflon-glass homogenizer and rotor and further subjected to three freeze-thaw cycles using liquid nitrogen. Membranes were separated by centrifugation at 40,000 g for 25 min at 4° C. The membrane pellet was washed and resuspended in ice-cold Tris-sucrose buffer (20 mM Tris, pH 7.4, and 250 mM sucrose) and frozen in liquid nitrogen. The total protein was determined using a Bradford assay (Bio-Rad). […] Membranes were then harvested over polyethylenimine (0.5%)-treated Whatman GF/C filter plates and washed three times with ice cold binding buffer containing 500 mM NaCl. Plates were counted by liquid scintillation. Inositol Phosphate Accumulation Assay— 24 hours post transfection with pcDNA3.1-CXCR4 and pcDNA1-HA-mG {alpha} qi5 (see Verzijl et al, 2008 supra), 250.000 cells were seeded into 24-wells plates and labelled overnight using inositol-free minimal essential medium supplemented with 1 μCi myo-[2-^3H]-inositol. The next day, the cells were washed once to remove not incorporated myo-[2-^3H]-inositol. […] In agonist experiments, the cells were directly stimulated with test compounds and LiCl (10 mM) in assay buffer for 2 h at 37° C. The stimulation was stopped by aspirating the stimulation medium and adding ice-cold 10 mM formic acid. The accumulated inositol phosphates were isolated by anion exchange chromatography and counted by liquid scintillation. CRE Reporter Gene Assay— HEK239T cells were transfected with pCRE/β-galactosidase (Chen W, Shields T S, Stork P J S, Cone R D (1995) Anal Biochem 226:349-354) and plasmids (pcDEF3 or pcDNA3.1) encoding the indicated receptors. 40,000 transfected cells per well were seeded into 96 well plates and grown in DMEM supplemented with 10% fetal calf serum. The medium was replaced 32 h after transfection by serum-free DMEM supplemented with 0.5% bovine serum albumin and ligands as indicated. […] The β-galactosidase activity was determined by the measurement of absorption at 420 nm with a PowerwaveX340 plate reader (Bio-Tek Instruments Inc., Winooski, Vt.) after incubation with the assay buffer when the OD420 value for forskolin (3 μM) controls reached 0.4-0.6. Chemotaxis Assay— The chemotactic responsiveness of Jurkat 3D cells was assessed using ChemoTx™ plates (Receptor Technologies Ltd., Oxon, UK) in which a upper cell-containing compartment is separated from a lower chemoattractant-containing compartment by a polyvinylpyrollidone-free polycarbonate filter with 5-μm pores. Cells were harvested, washed and resuspended in RPMI containing 0.5% bovine serum albumin and then loaded to 150,000 cells per well in a volume of 25 μl into the upper compartment of the chemotaxis chamber.

The target in experiment [2] is T1, CXCR4. The experiment in a line: [125I]-238D2 competition binding on membranes from HEK293T cells transiently expressing CXCR4. The settings on record: for displacement of [125I]-238D2 from CXCR4: [125I]-238D2 3 nM; for Displacem. (%) of [125I]-238D2 at 0.5 μM: at highest test concentration of 0.5 μM (footnote a: no significant displacement; b: maximum not reached). The procedure:
as §1

The target of experiment [3] is T1, CXCR4. The experiment in a line: [125I]-238D4 competition binding on membranes from HEK293T cells transiently expressing CXCR4. The settings on record: for displacement of [125I]-238D4 from CXCR4: [125I]-238D4 3 nM; for Displacem. (%) of [125I]-238D4 at 0.5 μM: at highest test concentration of 0.5 μM (footnote a: no significant displacement; b: maximum not reached). As to the method:
as §1

T1 sequence (P61073 whole entry): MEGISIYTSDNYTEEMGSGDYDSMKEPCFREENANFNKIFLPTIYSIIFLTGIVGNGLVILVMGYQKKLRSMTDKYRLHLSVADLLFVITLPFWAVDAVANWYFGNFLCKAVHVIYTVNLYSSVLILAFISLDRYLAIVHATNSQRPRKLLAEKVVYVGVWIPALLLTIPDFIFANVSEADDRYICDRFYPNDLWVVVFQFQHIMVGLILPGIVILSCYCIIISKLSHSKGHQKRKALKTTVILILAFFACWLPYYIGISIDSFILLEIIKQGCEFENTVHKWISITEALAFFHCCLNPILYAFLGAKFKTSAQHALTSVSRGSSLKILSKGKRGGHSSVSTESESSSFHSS

B1: 238B10: Nanobody (VHH) raised against human CXCR4, SEQ ID NO: 242 (protein)
VHH: EVQLVESGGGFVQAGGSLRLSCETSGRPLLGYTIAWFRQVPGKEREFVAYHRWSDGANLYADSVKGRFTISGHNAKNTVSLQMNSLKPEDTAVYYCAAARMTTSNDKEYLYWGQGTQVTVSS
modifications: Nanobody, Nanobody constructs or fragments thereof
Regarding B1, the “affinity to CXCR4” value with CXCR4 [1] (in words) was “inactive”.

B2: 237D2: Nanobody (VHH) raised against human CXCR4, SEQ ID NO: 241 (protein)
VHH: EVQLVESGGGLVQPGGSLRLSCAASGFTFDDYAMSWVRQAPGKGLEWVSAISWNGGSTDYADSVKGRFTISRDNAKNTLYLQMNSLKSEDTAEYYCARDQGPFYSGTYYYTRQYGYRGQGTQVTVSS
modifications: Nanobody, Nanobody constructs or fragments thereof
As to B2, in the experiment with CXCR4 [1], the “Displacem. (%) of [125I]-CXCL12 at 0.5 μM” value is reported as 0^a % and the “displacement of specifically bound [125I]-CXCL12” value is given as “unable to displace”. In the experiment with CXCR4 [2], the “displacement of [125I]-238D2 from CXCR4” value is on record as “unable to inhibit” and the “Displacem. (%) of [125I]-238D2 at 0.5 μM” value is listed as 0^a %. Also, in the experiment with CXCR4 [3], the “displacement of [125I]-238D4 from CXCR4” value is reported as “unable to inhibit” and the “Displacem. (%) of [125I]-238D4 at 0.5 μM” value was 0^a %.

B3: 238D2-20GS-238C5 (protein)
chain: EVQLVESGGGLVQTGGSLRLSCAASGFTFSSYAMSWVRQAPGKGLEWVSGIKSSGDSTRYAGSVKGRFTISRDNAKNMLYLQMYSLKPEDTAVYYCAKSRVSRTGLYTYDNRGQGTQVTVSSGGGGSGGGGSGGGGSGGGGSEVQLMESGGGLVQAGGSLRLACAASGFTFEDYAIGWFRKAPGKEREGVSCISGSDGSTTYADSVKGRFTISTDNAKNTVYLEMNSLKPEDTAVYYCAQQYGVGGRVVCPGPYEYDVWGQGTQVTVSS
modifications: Nanobody, Nanobody constructs or fragments thereof
Take B3: in the experiment with CXCR4 [1], the “Rel. potency, relative to monovalent 238D2” value is given as 0.18^a; the “Displacem. (%) of [125I]-CXCL12 (maximal displacement), bivalent Nanobodies” value amounted to 110 ± 2%; the “pKi, [125I]-CXCL12, bivalent Nanobodies” value came out at 7.35 ± 0.07.

B4: 237D1: Nanobody (VHH) raised against human CXCR4, SEQ ID NO: 249 (protein)
VHH: EVQLVESGGGLAQPGGPLRLTCEASGVIYSVNDMGWYRQAPGKQRELVAVITSGGGTNYVDSVKGRFTISGDNRKKTVYLQMNSLKPEDTAVYYCSIYYSSGISTLRSWGQGTQVTVSS
modifications: Nanobody, Nanobody constructs or fragments thereof
As to B4, in the experiment with CXCR4 [1], the “Displacem. (%) of [125I]-CXCL12 at 0.5 μM” value is 0^a %; the “displacement of specifically bound [125I]-CXCL12” value is “unable to displace”; the “Binding (binding efficiency, competition binding with [125I]-CXCL12)” value is listed as “+ (+ = 30-69%)”. In addition, in the experiment with CXCR4 [2], the “displacement of [125I]-238D2 from CXCR4” value was “unable to inhibit” and the “Displacem. (%) of [125I]-238D2 at 0.5 μM” value was 0^a %. For the same molecule, in the experiment with CXCR4 [3], the “displacement of [125I]-238D4 from CXCR4” value is recorded as “unable to inhibit” and the “Displacem. (%) of [125I]-238D4 at 0.5 μM” value was 0^a %.

B5: 238D2-20GS-238B10 (protein)
chain: EVQLVESGGGLVQTGGSLRLSCAASGFTFSSYAMSWVRQAPGKGLEWVSGIKSSGDSTRYAGSVKGRFTISRDNAKNMLYLQMYSLKPEDTAVYYCAKSRVSRTGLYTYDNRGQGTQVTVSSGGGGSGGGGSGGGGSGGGGSEVQLVESGGGFVQAGGSLRLSCETSGRPLLGYTIAWFRQVPGKEREFVAYHRWSDGANLYADSVKGRFTISGHNAKNTVSLQMNSLKPEDTAVYYCAAARMTTSNDKEYLYWGQGTQVTVSS
As for B5, in the experiment with CXCR4 [1], the “Rel. potency, relative to monovalent 238D2” value is given as <0.1^a and the “pKi, [125I]-CXCL12, bivalent Nanobodies” value is under 7.00. The “Displacem. (%) of [125I]-CXCL12 at 0.5 μM, bivalent Nanobodies” value in the experiment with CXCR4 [1] (maximum not reached at the highest test concentration of 0.5 μM, displacement at 0.5 μM) was 43 ± 11^c %.

B6: 237A6: Nanobody (VHH) raised against human CXCR4, SEQ ID NO: 248 (protein)
VHH: EVQLVESGGGLVQAGGSLRLSCAASGSIFSLNAMGWYRQAPGKQRELVAGITSSTSTYYADSVKGRFTISRDNTKNTVYLQMNSLKPEDTAVYYCNVDCPDYYSDYECPLEDRGQGTQVTVSS
modifications: Nanobody, Nanobody constructs or fragments thereof
Take B6: in the experiment with CXCR4 [1], the “Displacem. (%) of [125I]-CXCL12 at 0.5 μM” value is given as 0^a %; the “displacement of specifically bound [125I]-CXCL12” value is on record as “unable to displace”; the “Binding (binding efficiency, competition binding with [125I]-CXCL12)” value was “+ (+ = 30-69%)”. In addition, in the experiment with CXCR4 [2], the “displacement of [125I]-238D2 from CXCR4” value was “unable to inhibit” and the “Displacem. (%) of [125I]-238D2 at 0.5 μM” value was 0^a %. Besides, in the experiment with CXCR4 [3], the “displacement of [125I]-238D4 from CXCR4” value is recorded as “unable to inhibit” and the “Displacem. (%) of [125I]-238D4 at 0.5 μM” value is reported as 0^a %.

B7: 238D2-10GS-238D2: bivalent Nanobody, 238D2 linked to 238D2 by a 10 amino acid GGGGS linker (protein)
chain: EVQLVESGGGLVQTGGSLRLSCAASGFTFSSYAMSWVRQAPGKGLEWVSGIKSSGDSTRYAGSVKGRFTISRDNAKNMLYLQMYSLKPEDTAVYYCAKSRVSRTGLYTYDNRGQGTQVTVSSGGGGSGGGGSEVQLVESGGGLVQTGGSLRLSCAASGFTFSSYAMSWVRQAPGKGLEWVSGIKSSGDSTRYAGSVKGRFTISRDNAKNMLYLQMYSLKPEDTAVYYCAKSRVSRTGLYTYDNRGQGTQVTVSS
modifications: Nanobody, Nanobody constructs or fragments thereof
notes: bivalent Nanobody, 238D2 linked to 238D2 by a 10 amino acid GGGGS linker
B7: in the experiment with CXCR4 [1], the “Rel. potency, relative to monovalent 238D2” value is listed as 14^a; the “Displacem. (%) of [125I]-CXCL12 (maximal displacement), bivalent Nanobodies” value was 95 ± 5%; the “pKi, [125I]-CXCL12, bivalent Nanobodies” value was found to be 9.16 ± 0.08.

B8: 238D4-20GS-238D4: bivalent Nanobody, 238D4 linked to 238D4 by a 20 amino acid GGGGS linker (protein)
chain: EVQLMESGGGLVQAGGSLRLSCAASGRTFNNYAMGWFRRAPGKEREFVAAITRSGVRSGVSAIYGDSVKDRFTISRDNAKNTLYLQMNSLKPEDTAVYTCAASAIGSGALRRFEYDYSGQGTQVTVSSGGGGSGGGGSGGGGSGGGGSEVQLMESGGGLVQAGGSLRLSCAASGRTFNNYAMGWFRRAPGKEREFVAAITRSGVRSGVSAIYGDSVKDRFTISRDNAKNTLYLQMNSLKPEDTAVYTCAASAIGSGALRRFEYDYSGQGTQVTVSS
modifications: Nanobody, Nanobody constructs or fragments thereof
notes: bivalent Nanobody, 238D4 linked to 238D4 by a 20 amino acid GGGGS linker
For B8, the “Displacem. (%) of [125I]-CXCL12 (maximal displacement), bivalent Nanobodies” value with CXCR4 [1] turned out to be 96 ± 5%.
